The DeepSol protein solubility set

Assay: soluble on expression in E. coli; label from the status in PepcDB or PDB records

Soluble on expression in E. coli, not soluble:
MGSDKIHHHHHHMNPNFTWDDLQFFLAVARTGQLSTAARRLRTSHATVSRRIDRLEFALKVKLFERNPRGYVLTTMGQRFVETAERMERETEQLQLDISDGMTAQRGVVRLSTLEGFGNFFLADRLGEFAERYPNISLELVAIQQIMSLSRKEADIAVALAAPKAGAYHAEVLTPYTLHVYGARSYLAGQPPIRTRSDLGSHRFVGYIDDMIFTPGLDYLGEIQPGLRAHFQSSSILTQLKAVRQGLGLCVLPHFMAKDEPNLEIVLPDEIELKRTYWLICHRDLIAIPRVRAVRDFLVDAAVENRGCFLRETPFALTGPRRVLERQ
MGSDKIHHHHHHMNPSPLPYFLGCPSWSENAWRDYLYPADANSNQMLGFYSQVFNAVEGNTTFYARPAPGTIARWAQLMPEHFRFTAKFPRDVSHEGDLRDQLEPAFDFTRLMAPLGRRVSPYWLQLPAQFGPARLGELCHFLDQIAVPVAVEVRNQAFFAKGEEERLLNRLLHERGVERICLDPRALFSCTSRDPAVLHAQSKKPKVPPRPAAFSQHPQVRFIGHPELEANHTFLSPWVEKVAAWIEEGRNPYIFLHTSDNRLAAALAQRFHQRLMARLPGLAPLPELPRAPEVEQLGLL
MGSDKIHHHHHHMNRDYVCSEMFCMGTIISQKIYGEDKKEVLFKVENEMRRLEKAMNFYSSSSEISKLNKFGFENEIKLSKDVYHVIKNAKNFSKKTLGAFDISLAPIIKLWGIFCENERVPSVKEIEKNLSLVNYKNLVLNDYKRTVKFLVEDMKVDLGGIAKGYAADRAIDIYKGGGVKSASINLGGNVSVIGEKPDGKSWCIGVQNPLKKRGEIIGAISVKNKSVVTSGSYVRYFEKDNIKYHHIIDPKTGYPAKEELLSVTVIFENSMLCDAVSTAAFIAGADGGIELVKRFRDVEAIFITKDRKVIITKGIAKSFSLVEESGFQYL
MGSDKIHHHHHHMNRESMRPQFAPARSPSDVAMISRHIEAGVHRLPRAPHHRVMVHASAATRSYCNQVGRYFVRRAGDIDLVPAGEEGGFEAETAFDTVEIVLPPALMERVAAELGGRALVSRLDTRHLLRDQRIEHLARALQNDLDAGAPSGSLFADSIGAALAVRLLGVDDDIDIERTNRLSDTQLKRVLEHIEAALHEPLSIDRLARVAGASSSHLRTWFKVATGVTLHRYVLRRRVERARLLLERGDLSTSEVAELTGFAHQSHLAHWMRREIGQTPRDVRRARPPK
MGSDKIHHHHHHMNSSQKRVLHVLSGMNRGGAETMVMNLYRKMDKSKVQFDFLTYRNDPCAYDEEILSLGGRLFYVPSIGQSNPLTFVRNVRNAIKENGPFSAVHAHTDFQTGFIALAARLAGVPVRVCHSHNTSWKTGFNWKDRLQLLVFRRLILANATALCACGEDAGRFLFGQSNMERERVHLLPNGIDLELFAPNGQAADEEKAARGIAADRLIIGHVARFHEVKNHAFLLKLAAHLKERGIRFQLVLAGDGPLCGEIEEEARQQNLLSDVLFLGTEERIHELMRTFDVFVMPSLYEGLPVVLVEAQASGLPCIISDSITEKVDAGLGLVTRLSLSEPISVWAETIARAAAAGRPKREFIKETLAQLGYDAQQNVGALLNVYNISTEKDHNR
MGSDKIHHHHHHMNSSQVLDVKRVLAVLEEQVFQSTGRYLTEVEKVLIKGVWDSKDYKEMASDSGYNAYYLQQKVAPPLWSMLSVIIGDGVKVTKISLKSILLKLAKSDYRKEEASRLDNDSFVGNIRIHGELPKIKSFYGRKDEINYFKKQITLFKERCIVFTGVGGIGKTLLASRLVEEITFDSLSSIYECIIWKTINHSLSIDELVIDLNKIFQVDIEASENSFIDSISLLSKQLHLHRCLLVIDGFEKLLLADDFGKRLQYEKFLLKLTEGKHESCIIITSQLPLKEFASVTTKLPIRSFKLEGLDVNAGMQILQEKGLTGQECKRLIENYSGNPSSLEALADRINRFFEGSVKTFFRYQTTMIDPQLETMLHQQFGQIGLLSNLQRQIMIYLAEEMSENSTPIQFSKLIDNLKERVDFKLSVFELITAIEVLEQRSLIEIAGKSNKREASYSLQVSIKKYILVDPLGLVHKIPDTIQTREVTLWATA
MGSDKIHHHHHHMNTIEDNLNQRISARIRIERESRGWSLNDLAERAGASRAMIHKIERGESSPTASMLGRLSGAFGISMSTLIARAEMQEGKLLRFASQPVWRDPQSHYLRRHVSPRSDLPIDLVQIELPPGSDVPMPAASYALARQLIWLQQGELVFVEGNTRHEMQAGDCLELGPPNDCRFINESAETCVYLVVRLNQSPSGS
MGSDKIHHHHHHMNTLTLEYIKSILPPRPDNSHKMTFGHVLNIAGSLHYRGAAYLSSLSALRVGAGYVTLASSPSVCDSVSALTPNIVTFALRTLSPLSVHSLQRTANLHLKDAQIVDVQTLSPQAVLQLRDKLTQASAISIGSGLSIGQSTDQCIDITAINTELTVDVDVTLCTEMSAEISTDLNSDLNSDLNSDLRSELPICNVIKDNQPHSNELIPPQGNHGFFYALLNEIQTCTKPVIFDADALNFISHLLNPPVPFGTTTVTLPNKSIITPHPKELARLLNMDVATLQTQRMHFARLAAKQLNTIVVLKGKNTVITDGNDVFINPTGNSALAKAGTGDVLTGMISGFCAQGVSPINAACLGVYLHGLAGNIAAEDLSQYGMLASDLLSYIPKAILKVLAI
MGSDKIHHHHHHMNTPAPRKRREMKIKTATVTGVRQISPDLIRFSFDCPEIVGADLGFTDHYIKILFVPAGADYSWPFDMAEIAETQPRELQPVRRTYTFRTVDTVAGTFDIDFVAHGTDGLAGPWAQQAQVGDVIAFGGPGGAWKPETTYEHYVLAGDEAAAPAIFAALEHLPAGTTAKAFIEISSNEARFNAPASDNIEVVWVPRDGATHGTLLIDALRQDGYPTKKTSWFIHGVAEMVKETRKFLFVEGNVDKADASISGYWRLGMTEDQWQASKREFNEQNEAEELALSKA
MGSDKIHHHHHHMNTPFMLHQGTSPVILAFPHTGTEVPPAIWDRLDDNGRIFADTDWHIHTLYAGLLENATTVRATFHRYVIDANRDPAGVSLYPGQNTTGLVPETDFDGKPIWKTGAEPNEADIAHRLETFHAPYHAALAAEIERVKSIHGIAILYDCHSIRSHIPFLFEGKLPDFNIGTDMGKTCDPAIEKIAVEVTAAAQGYDSILNGRFKGGWTTRHYGKPQTGVHAIQMELAQSTHLQNEHPPFAYDTGKAERLRTHLKTILTRMEKFALDTK
MGSDKIHHHHHHMNTRSDVSKLIAQRKPRHALPRALYSNLAVYQQDLQQLWHKDWIFAGHTFELEKSGQYLSLQIGDYPVAVVRGADGQVRAFHNSCRHRGSKVCPEAKGKVAKLVCPYHKWTFELDGRLLFAGNMGDDFDKSQYNLKPVHCEIVNTYIYVCVAEAAPDFSAFREAVTPFLMPHNLEDCKVAFESNLIEKGNWKLVFENNRECYHCDGTHPELMNSFVENLSVAGVGGSDDPQLTAHWDRCEAAGLPSRLVMDNDGRFRITRIPLSSGAVSYTMDGKPAVAVRLDASGEADIGALLYFNYPSTWNHFLGDHALSFRVLPLGPNETLVTTKWIVKKTAVEGLDYDLDRLTKVWLATNDQDRTLVEGAQVGVNSPAYEPGPFSSKAENGVCQFDDWYCEIMLDRLGDDRAQASIKLKSVG
MGSDKIHHHHHHMNWLLNISTHGSDLEIAGPEWSEAVSLLRRTGMDGFELYPAGAYDCTAIPKEIVGGVHLRFFVMLRQIWQNDREGLLRMFGSEQTVRHYYSGVNREAVISCYRSQLELAARFNVPYVVFHPVHYELEYVFNWQPPWGWRETVDLSTEIINEVVRDTPYDGWILFENLWWPGNFRLDSTDEIDRLLSKVRWPKCGIVLDTAHILNKNQELRTEEEAIAFLLRQVERLGDYRQLIKAVHLSKSLSGEAAKAGFANADPFCGAHDFWQRFSIALRHVRDLDRHEPFSHSMLGELFDLIEPDNVVFELAFSSLDEWIGKIEQQQRALQRFFPECRIKENLY
MGSDKIHHHHHHMPALCSTVQTLEKLAKDDVSSLALLGRSVMHDNALTSRILRVANSAIYHKGSTQISTVSRAAIVLGFDAVRNICITAQLLSSLLESKNLAPSVYQRLIKLMAKAFQAAMLTRMMLSDYDDDIQEEAFIACLLFHIGESAFWSIGGEFTETLDSQLTECETSADERSLIRETIGTSFSQLTQSIARHWGLGELLIQAVNYPDDPRPEIRSIFLADKLCDTLSVATPDKNDLEKYINQAANFTGLDETEFTLKMQRCTKATHKLAEAYGAKVLIDYLPDPQRIDKLEPYLPEAELPIFEANLNVQLVKLRELTAFAINKADFNQIMQTVLEGILEGVGVDRCGVLLLSPSRKQLQPRIMLGRDAEEMKRQFIIELGDRKGLFPMAMEHKESLWVDSPCAKKWQEQCRELKVQLPESGFLVAPLLVDNKVIGFYYADRGPSERCFAEVDFQAFIHFSQLANVCFTVSLK
MGSDKIHHHHHHMPDTEEIARDSVVPPDVRRQAVNWLVELQSDIVTDETRDQWQKWRMSHPDHEYAWQQVEVFSRKLRGLPSPLAHAALTPPHSSSRRRAIKALTVLIFLGGGTWVAGEGRLWCWWPEDYCTGIGEHRAVTLSDGTGIELNSGSAITVNFDDTRRLIRLMNGEIMVTTAPDPRLANGIGAARPLLIETAQGILRAIGTRFTVRQFDVSQQGKSSVAVFEGAVEIQPITGRLRQLEVGQQAAFTRDGVIAVGMACEADTAWRQGMIVARDMPLIDFLAELGRHRSGWLSCDPAVAQLKVTGTYPLADIGKILAILQKTLPIDVQLFTRYWIRVGARQEDT
MGSDKIHHHHHHMPEFNYQKAFPLKKDPTPYKLISTDYVSTIEVDGRKILKIDPKALELVAEKALADVSFYLRSSHLEKLAKIIKDPEATDNDRFVAYTLLQNASTAGEGKLPSCQDTGTAIVMGKKGENVWTGANDEEALSKGIYNTYQEKNLRYSQVVPITMFEEKNSGTNLPAQIDIYAEQGNEYKFLFMAKGGGSANKTYLYQQTKALLNENSLAEFVKNKIKDLGTSACPPYHLALVIGGTSAEANLKAVKLASAGYYDELPTEGNMGGQAFRDLEWEEKVQLICQESLIGAQFGGKYFTHDVKVIRLPRHAASCPVGIGVSCSADRNIKAKITEEGIFIEALETNPEKFLPAQAPHLEKAVEVDLNQPMADVLKLLSQYPIKTRLKLKGTLIVARDIAHAKIKELLDAGKPMPEYFKNHPVYYAGPAKTPEGMPSGSFGPTTAGRMDSYVNLFQSQGGSMIMLAKGNRSKAVTDACKEFGGFYLGSIGGPAAILAKENIKSVEVVDFEELGMEAVRKIEVVDFPAFIICDDKGNDFFANL
MGSDKIHHHHHHMPGNSSGVAAVERAVSMLEAFTDVDYSLTLGELARRTELDKSTVLRIARSLAKSSMLVRNDDASWRLGPKLVRLGGLYQSTFKSSAIVEPLLAQISDESGESAAVYVKEGVVRVCLHRHDSTQSIRHSARVGDAMPLDRGAPGRVILAFTGSSGKLYDDIRAKGFHVTIGERDPQVASVAVPVYRDGQALFGSLALTGPPSRFNEEAVSKNLEILRVAARKLSAALGGDPG
MGSDKIHHHHHHMPGQLKVTLLDSPNPLSKANPIHLKPLVNHCMDCRVSGLCLPTGLPVDENSCLGALIGPRMRIRKGAALFNANDPLTMLYALRCGSFKTSLNTAEGQGVVINFWMPGDVIGLDAIATEHHVCDAIALEDSEVCPVPYRRLQTLAREFPDLQQSLNRLMSREIVREHGRVLMLCNLTAEQRLASFLVGLSRRFVSRGYSAHGFMLRMSREDMASYLGLRLETVCRSVARLRALGIVDLHGRLVEILDMPALMALEQGGGECEAKGP
